What was measured:
Assay in all cases: biopanning and SPR screening
human TGFβ3 = biological target: T1, human TGFβ3 (human, UniProt P10600 301-412)
T1 construct: also called hTGFβ3
T1 sequence (looked up): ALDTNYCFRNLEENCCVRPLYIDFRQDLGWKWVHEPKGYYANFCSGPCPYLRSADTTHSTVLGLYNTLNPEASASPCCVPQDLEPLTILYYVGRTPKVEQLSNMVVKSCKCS

mouse TGFβ1 = biological target: T2, mouse TGFβ1 (mouse, UniProt P04202 279-390)
T2 construct: also called mTGFβ1; mTGFβ-1

human TGFβ2 = biological target: T3, human TGFβ2 (human, UniProt P61812 303-414)
T3 construct: also called hTGFβ2
T3 sequence (looked up): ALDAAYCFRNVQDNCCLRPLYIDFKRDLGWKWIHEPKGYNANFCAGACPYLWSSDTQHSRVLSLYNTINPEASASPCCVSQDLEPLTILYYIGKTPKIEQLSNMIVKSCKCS

human TGFβ1 = biological target: T4, human TGFβ1 (human, UniProt P01137 279-390)
T4 construct: also called hTGFβ1; hTGFβ-1
T4 sequence (P01137 279-390 limits assumed): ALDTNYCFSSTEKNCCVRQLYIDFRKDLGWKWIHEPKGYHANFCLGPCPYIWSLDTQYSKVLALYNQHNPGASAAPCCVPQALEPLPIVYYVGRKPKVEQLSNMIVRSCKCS

T2 sequence (P04202 279-390 limits assumed): as the sequence (P01137 279-390 limits assumed) above, with A75S counted along it

- binding result (human TGFβ3): binds
- binding result (mouse TGFβ1): binds
- binding result (human TGFβ2): binds
- binding result (human TGFβ1): binds
B1: 4H7 (scFv)
scFv: QVQLVESGGGLVKPGRSLRLSCAASGFTFSSYAMHWVRQAPGKGLEWVAVISYDGSNKYYADSVKGRFTISRDNSKNTLYLQMNSLRAEDTAVYYCAKEMRYCSGGSCYPYAYYMDVWGQGTTVTVSSASTGGGGSGGGGSGGGGSVHSSSELTQDPAVSVALGQTVRITCQGDSLRSYYASWYQQKPGQAPVLVIYGKNNRPSGIPDRFSGSSSGNTASLTITGAQAEDEADYYCNSRDSSGNLVVFGGGTKLTVLGLGG
notes: also called anti-TGFβ-1 scFv 4H7

From patent US12006361 (SONNET BIOTHERAPEUTICS, dated 2024)
